Data: US20140370563A1, “COMPOSITIONS AND METHODS FOR THE RELIEF OF INHIBITION OF ALDEHYDE DECARBONYLASE” (priority 2011, published 2014)
Entries after “also recorded” stand apart in the source; their conditions may differ.

What was measured:
[1] = target: T1, aldehyde decarbonylase (ADC) (Prochlorococcus marinus, UniProt Q7V6D4); assay: decarbonylase assay (octadecanal to alkane, GC/MS); format: biochemical
T1 construct: made in house; host or cells: E. coli BL21 (DE3) Gold
T1 sequence (Q7V6D4 1-243): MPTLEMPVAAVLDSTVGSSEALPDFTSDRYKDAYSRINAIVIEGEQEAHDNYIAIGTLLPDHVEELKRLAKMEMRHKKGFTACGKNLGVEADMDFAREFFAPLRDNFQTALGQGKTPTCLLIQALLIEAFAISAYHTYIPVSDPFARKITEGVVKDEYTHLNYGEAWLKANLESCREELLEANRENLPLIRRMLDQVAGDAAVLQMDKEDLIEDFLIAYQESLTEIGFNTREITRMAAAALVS
Protocol: (§1) Typical decarbonylase assays were 0.25 mL and contained 25 mM Tris-Cl pH 7.5, 0.1% Triton X-100, 1 mM DTT, 50 μg/mL maize root ferredoxin and 1 U/mL anabaena vegetative ferredoxin reductase (Cahoon et al. 1997, PNAS 94:4872-4877.), 2 mM NADPH, 200 μM octadecanal, and between 0.2-5 μM ADC or CAT-ADC. A 20 mM octadecanal stock was freshly prepared by sonicating powder in 10% Triton X-100. Octadecanal was obtained from ISCA technologies. When indicated catalase (Sigma C-9322) was added to a final concentration of 4 mg/mL from a 20 mg/mL stock dissolved in 100 mM PIPES pH 6.0. For assays performed in 100% oxygen a reaction master mix without NADPH and a separate NADPH solution were prepared by repeated purging of the sample cell with 100% O2 and vacuum with the use of a Schlenk line. Reactions were initialed by addition of either enzyme, substrate, or NADPH and were incubated at 37° C. and stopped by the addition of an equal volume of ethyl acetate. The organic phase was separated by GC/MS on an HP-5 ms column with oven temperature increasing from 75° C. to 320° C. at 40° C./min with a flow rate of 1.3 ml/min. Substrate and product were identified by comparison to authentic standards.

[2] = substrate: CCCCCCCC/C=C\CCCCCCCC=O; assay: Decarbonylase assay: kinetics of aldehyde decarbonylase activity with aldehyde substrates of different lengths (FIG. 8); recombinant ADC, GenBank CAE21406.1, with N-terminal MGSDKIHHHHHHENLYFQG tag, expressed in E. coli BL21 (DE3) Gold; no mutations stated; format: biochemical, Prochlorococcus marinus; details: other: aldehyde as substrate, typical assay 25 mM Tris-Cl pH 7.5, 0.1% Triton X-100, ferredoxin, ferredoxin reductase, 2 mM NADPH, 37° C., GC/MS
Description: (§2) A catalase transcriptional fusion was produced as described below. […] The Catalase used was Ec catalase (GenBank Accession No. U00092.2) though the present invention is not limited to the use of this particular catalase. The ADC used was Pm ADC (GenBank Accession No. CAE21406.1). The ADC contains a diiron site. ADCs utilizing other metals are also suitable for use. For example, ribonucleotide reductase, which is normally a diiron protein can also use Mn (manganese) (Metallomics, 2011, 3(2):110-120, ePub […] Jan. 25). The catalase and ADC sequences were connected by a 20 amino acid linker: […] [SEQ ID NO: 8]. A 6×His-tag was added to the 3′ end for simplified purification. The recombinant catalase-ADC fusion (hybrid) protein (CAT-ADC or CA) was produced using the T7 expression system in E. coli and was purified using Ni-NTA agarose resin.
(§3) The pSpeedET T7 inducible bacterial expression plasmid containing the coding sequence for Prochlorococcus marinus aldehyde decarbonylase (ADC, GenBank: CAE21406.1 [SEQ ID NO: 1]) fused with an N-terminal MGSDKIHHHHHHENLYFQG [SEQ ID NO: 2] tag as constructed by the Joint Center for Structural Genomics, was obtained from the DNASU plasmid repository. The E. coli catalase (katE GenBank: U00096.2 [SEQ ID NO: 3]) ADC fusion protein (CAT-ADC) was constructed by overlap extension PCR. Primers for catalase were: forward—[…] [SEQ ID NO: 4] and reverse—[…] TTTGTCAATCTTAGG [SEQ ID NO: 5]. Primers for ADC were: forward—[…] TTGAGATGCCT [SEQ ID NO: 6] and reverse—[…] [SEQ ID NO: 7]. The final construct contained catalase followed by a 20 amino acid flexible linker domain ([…] [SEQ ID NO: 8]) (Martin et al 2005, Nature 473:1115-1120.) followed by ADC and finally a C-terminal hexahistidine tag and was cloned into the NdeI and XhoI sites of pET24b.
(§4) E. coli BL21 (DE3) Gold cells containing various plasmids were grown at 37° C. to an OD600 of 0.4, were induced with 0.4 mM IPTG, and were grown for an additional 4 hours at 37° C. for ADC or 30° C. for CAT-ADC. Cell pellets were suspended in 20 mM Tris-Cl pH 7.5, 150 mM NaCl, 20 mM imidazole, 5 mM MgCl2, and 0.1 mg/mL DNase and were lysed using a French pressure cell. Cellular debris was removed by centrifugation at 40,000×g for 20 min. Recombinant proteins were purified from the soluble fraction with Ni-NTA resin (Qiagen). Wash and elution buffers were 20 mM Tris-Cl pH 7.5, 300 mM NaCl, and 25 or 250 mM imidazole, respectively. Eluted proteins were immediately exchanged into 20 mM HEPES pH 7.8, 200 mM NaCl using PD-10 desalting columns. Protein concentration was determined with Bradford Assay (Sigma).
as §1

[3] = substrate: CCCCCCCCCC=O; assay: as above; format: biochemical, Prochlorococcus marinus; details: other: aldehyde as substrate, typical assay 25 mM Tris-Cl pH 7.5, 0.1% Triton X-100, ferredoxin, ferredoxin reductase, 2 mM NADPH, 37° C., GC/MS
Description: as §2, §3, §4, §1

[4] = substrate: CCCCCCCC=O; assay: as above; format: biochemical, Prochlorococcus marinus; details: other: aldehyde as substrate, typical assay 25 mM Tris-Cl pH 7.5, 0.1% Triton X-100, ferredoxin, ferredoxin reductase, 2 mM NADPH, 37° C., GC/MS
Description: as §2, §3, §4, §1

[5] = substrate: CCCCCCCCCCCC=O; assay: as above; format: biochemical, Prochlorococcus marinus; details: other: aldehyde as substrate, typical assay 25 mM Tris-Cl pH 7.5, 0.1% Triton X-100, ferredoxin, ferredoxin reductase, 2 mM NADPH, 37° C., GC/MS
Description: as §2, §3, §4, §1

[6] = substrate: CCCCCCCCCCCCCCCC=O; assay: as above; format: biochemical, Prochlorococcus marinus; details: other: aldehyde as substrate, typical assay 25 mM Tris-Cl pH 7.5, 0.1% Triton X-100, ferredoxin, ferredoxin reductase, 2 mM NADPH, 37° C., GC/MS
Description: as §2, §3, §4, §1

[7] = substrate: CCCCCCCCCCCCCC=O; assay: as above; format: biochemical, Prochlorococcus marinus; details: other: aldehyde as substrate, typical assay 25 mM Tris-Cl pH 7.5, 0.1% Triton X-100, ferredoxin, ferredoxin reductase, 2 mM NADPH, 37° C., GC/MS
Description: as §2, §3, §4, §1

[8] = substrate: CCCCCCCCCCCCCCCCCC=O; assay: as above; format: biochemical, Prochlorococcus marinus; details: other: aldehyde as substrate, typical assay 25 mM Tris-Cl pH 7.5, 0.1% Triton X-100, ferredoxin, ferredoxin reductase, 2 mM NADPH, 37° C., GC/MS
Description: as §2, §3, §4, §1

[9] = target: T1, aldehyde decarbonylase (ADC); details: in the absence of catalase; Warui et al. 2011; cited from earlier work

Molecule: OO [H2O2, hydrogen peroxide, reference compound]
- inhibition of ADC by H2O2 in low oxygen atmosphere ([1]; 4% (50 μM) atmosphere): enhanced
- inhibition of ADC by H2O2 in oxygen atmosphere ([1]; 100% O2 (1250 μM) atmosphere, FIG. 2): lessened
- inhibition of ADC activity by H2O2 ([1]; H2O2 added to decarbonylase assays, FIG. 1A / FIG. 2): selectively inhibited; also recorded: increasing inhibition

B1: catalase: catalase enzyme (Sigma C-9322) added at 4 mg/mL; converts hydrogen peroxide to water and oxygen (protein, UniProt P00432 2-527, looked up)
Catalase: ADNRDPASDQMKHWKEQRAAQKPDVLTTGGGNPVGDKLNSLTVGPRGPLLVQDVVFTDEMAHFDRERIPERVVHAKGAGAFGYFEVTHDITRYSKAKVFEHIGKRTPIAVRFSTVAGESGSADTVRDPRGFAVKFYTEDGNWDLVGNNTPIFFIRDALLFPSFIHSQKRNPQTHLKDPDMVWDFWSLRPESLHQVSFLFSDRGIPDGHRHMNGYGSHTFKLVNANGEAVYCKFHYKTDQGIKNLSVEDAARLAHEDPDYGLRDLFNAIATGNYPSWTLYIQVMTFSEAEIFPFNPFDLTKVWPHGDYPLIPVGKLVLNRNPVNYFAEVEQLAFDPSNMPPGIEPSPDKMLQGRLFAYPDTHRHRLGPNYLQIPVNCPYRARVANYQRDGPMCMMDNQGGAPNYYPNSFSAPEHQPSALEHRTHFSGDVQRFNSANDDNVTQVRTFYLKVLNEEQRKRLCENIAGHLKDAQLFIQKKAVKNFSDVHPEYGSRIQALLDKYNEEKPKNAVHTYVQHGSHLSAREKANL
- relief of inhibition by catalase in all electron transport systems studied ([1]; Maize FNR/anabaena Fd, Spinach FNR/ferredoxin, PMS/NADH, FIG. 10): relieves the inhibition
- relief of H2O2 inhibition of ADC by added catalase ([1]; catalase added, 0, 1 or 10 mM H2O2 (FIG. 3), FIG. 1B): restoration of ADC activity; also recorded: effective in overcoming the H2O2 induced inhibition of ADC
- turnovers of the ADC reaction in the presence of catalase ([1]; excess aldehyde substrate, NADPH, ferredoxin NADPH reductase and ferredoxin, 16 hrs (FIG. 9)): greater than 150 turnovers

B2: aldehyde decarbonylase (ADC) (Prochlorococcus marinus str. MIT 9313) (protein)
chain: MPTLEMPVAAVLDSTVGSSEALPDFTSDRYKDAYSRINAIVIEGEQEAHDNYIAIGTLLPDHVEELKRLAKMEMRHKKGFTACGKNLGVEADMDFAREFFAPLRDNFQTALGQGKTPTCLLIQALLIEAFAISAYHTYIPVSDPFARKITEGVVKDEYTHLNYGEAWLKANLESCREELLEANRENLPLIRRMLDQVAGDAAVLQMDKEDLIEDFLIAYQESLTEIGFNTREITRMAAAALVS
notes: … (His6 tag) (N); made in house; host or cells: E. coli BL21 (DE3) Gold
- Km [2]: 44.4 ± 7.2 µM
- Km [3]: 29.5 ± 6.2 µM
- Km [4]: 27.7 ± 9.9 µM
- Km [5]: 45.3 ± 18.5 µM
- Km [6]: 30.1 ± 4.2 µM
- Km [7]: 18.9 ± 1.7 µM
- Km [8]: 41.3 ± 4.8 µM

B3: ADC: Prochlorococcus marinus aldehyde decarbonylase, GenBank CAE21406.1, N-terminal His tag (protein, UniProt Q7V6D4 1-243, looked up)
Aldehyde decarbonylase: MPTLEMPVAAVLDSTVGSSEALPDFTSDRYKDAYSRINAIVIEGEQEAHDNYIAIGTLLPDHVEELKRLAKMEMRHKKGFTACGKNLGVEADMDFAREFFAPLRDNFQTALGQGKTPTCLLIQALLIEAFAISAYHTYIPVSDPFARKITEGVVKDEYTHLNYGEAWLKANLESCREELLEANRENLPLIRRMLDQVAGDAAVLQMDKEDLIEDFLIAYQESLTEIGFNTREITRMAAAALVS
modifications: N-terminal His tag
notes: Prochlorococcus marinus aldehyde decarbonylase, GenBank CAE21406.1, N-terminal His tag
- sensitivity of decarbonylase activity to H2O2 inhibition ([1]; 200 μM substrate, 1 mM H2O2 added, FIG. 6A): inhibited by H2O2
- decarbonylase activity with or without added catalase ([1]; 200 μM substrate, excess NADPH, ferredoxin, FNR, FIG. 6A): highest activity only when catalase was added
- time after which ADC activity was inhibited ([1]; without catalase, FIG. 1B): about 15 min
- turnovers until ADC activity was inhibited ([1]; without catalase, FIG. 1B): about 3 turnovers
- turnovers of ADC before it becomes inactive [9]: approximately three
